According to US11035860B2, “Auto-active and intracellular mutant of MET” (Stichting Katholieke Universiteit, priority 2014, dated 2021):
“Also recorded” adds a separate entry of the source.

Columns and labels:
wtMET = biological target: T1, wtMET (Homo sapiens, UniProt P08581); assay: MET phosphorylation in serum-starved A549 cells (western blot); type: cell-based; settings: FIG. 1B, FIG. 5
T1 construct: in A549 cells the matured, cleaved MET protein was the predominant form; endogenous in cells; host or cells: A549 cells, serum-starved
Description: (§1) All cell lines were maintained at 37° C. in the presence of 5% CO2. To examine HGF-induced MET activation, E98 and A549 cells were seeded in 6 wells plates. The next day cells were serum-starved overnight. The following day cells were treated for 10 minutes (min) with HGF (50 ng/mL, Miltenyi Biotec, Bergisch Gladbach, Germany).
(§2) Cell lysates were prepared using RIPA buffer containing protease and phosphatase inhibitors (Cell Signaling Technology, CST, Danvers, Mass., USA). RIPA extracts (20-40 μg per lane) and His-tagged proteins from conditioned media (equivalent of 20 μl conditioned medium) were subjected to PAGE on 8-10% polyacrylamide gels and western blotting according to standard procedures. Nitrocellulose blots (Whatman Optitran BA-S85, GE Healthcare, Little Chalfont, UK) were blocked with PBS/Odyssey Blocking Buffer (LI-COR Biosciences, Lincoln, Nebr., USA) (1:1), followed by overnight incubation with primary antibodies at 4° C. […] Biotin groups and primary antibodies were visualized using respectively streptavidin-680 (Molecular Probes, Life Technology) and appropriate secondary antibodies [goat-anti-rabbit-IRDye800 (Rockland Immunochemicals, Gilbertsville, Pa., USA) or Alexa Fluor 680 goat-anti-mouse IgG (Molecular Probes, Life Technologies)]. Blots were scanned on the Odyssey imager (LI-COR Biosciences).

METΔ7-8 = biological target: T2, METΔ7-8 (Homo sapiens, UniProt P08581, DEL622-701); assay: MET phosphorylation in serum-starved E98 cells (western blot); type: cell-based; settings: FIG. 5
T2 construct: the majority of MET protein was in a 180 kDa phosphorylated form, corresponding to the uncleaved truncated preform; endogenous in cells; host or cells: E98 glioma cells, serum-starved
Description: as §1, §2

AKT [1] = assay: AKT phosphorylation in A549 cells (western blot); type: cell-based, human; settings: FIG. 5
Description: (§3) The E98 cell line and xenograft model and genetic analysis thereof have been described before (Caretti et al., 2011; Claes et al., 2008). E98, U87, A549, HEK-293T and TOV-112D cells were cultured in DMEM+4.5 g/L glucose medium (PAA Laboratories, Pasching, Austria) supplemented with 10% fetal calf serum (FCS) (PAA) and gentamycin (40 μg/mL). All cell lines were maintained at 37° C. in the presence of 5% CO2. To examine HGF-induced MET activation, E98 and A549 cells were seeded in 6 wells plates. The next day cells were serum-starved overnight. The following day cells were treated for 10 minutes (min) with HGF (50 ng/mL, Miltenyi Biotec, Bergisch Gladbach, Germany). In some experiments, prior to HGF incubation cells were incubated with the anti-MET llama VHH G2 (Heukers et al., 2014) or cabozantinib (XL-184, Exelixis, San Francisco, Calif.) for 60 min.
(§4) Cell lysates were prepared using RIPA buffer containing protease and phosphatase inhibitors (Cell Signaling Technology, CST, Danvers, Mass., USA). RIPA extracts (20-40 μg per lane) and His-tagged proteins from conditioned media (equivalent of 20 μl conditioned medium) were subjected to PAGE on 8-10% polyacrylamide gels and western blotting according to standard procedures. […]

AKT [2] = assay: AKT phosphorylation in E98 cells (western blot); type: cell-based, human; settings: serum-starved E98 cells; FIG. 5
Description: as §3, §4

lung cancer = settings: phase II study, lung cancer (Spigel et al., 2013); cited from earlier work

Substance: HGF: ligand Hepatocyte Growth Factor (HGF, Scatter Factor) of MET
- MET phosphorylation (wtMET): required for MET activation; also recorded: induced MET phosphorylation
- activation of the minority of processed β-fragment of MET (METΔ7-8): slight activation
- overall MET phosphorylation levels (METΔ7-8; HGF 50 ng/mL 10 min, G2 or cabozantinib 60 min, FIG. 1B): did not further increase
- levels of pAKT (AKT [1]): increased levels of pAKT
- levels of pAKT (AKT [2]): neither G2 nor HGF treatment resulted in altered levels

Substance: MetMab: antibody; MET activation inhibitor tested in a phase II study for lung cancer
- primary end point of prolonged survival (lung cancer): failed to meet the primary end point
